Laboratory results reported in US20250312387A1, “BACTERIAL THERANOSTIC RADIOIMMUNOTHERAPY” (priority 2024, published 2025).

B1: 2D12.5: monoclonal anti-DOTA(radiometal) antibody / scFv, SEQ ID NO: 1 (protein)
scFv: QVKLQESGPGLVQPSQSLSITCTVSGFSLTDYGVHWVRQSPGKGLEWLGVIWSGGGTAYTAAFISRLNIYKDNSKNQVFFEMNSLQANDTAMYYCARRGSYPYNYFDVWGQGTTVTVSSGGGGSGGGGSGGGGSQAVVTQESALTTSPGETVTLTCRSSTGAVTTSNYANWVQEKPDHLFTGLIGGNNNRPPGVPARFSGSLIGDKAALTIAGTQTEDEAIYFCALWYSNHWVFGGGTRLTVLG
modifications: 2D12.5 scFv

Tests used:
MC38 tumor cells = type: in vivo, C57BL/6 mice; conditions: two hours after intravenous 10 nmol DOTA, mice injected intratumorally with Sal-o-DBP
Method: To determine the biodistribution of Sal-o-DBP, three groups of six-week old C57BL/6 mice were injected subcutaneously with 1×10^5 MC38 tumor cells. When tumors reached approximately 200 mm^3, the mice were injected intravenously or intratumorally with 1×10^7 CFU of Sal-o-DBP in 50 μL of saline, or intravenously with saline. Sixty hours after bacterial injection, mice were injected intraperitoneally (IP) with 100 mg arabinose in 400 μL saline. Sixty-six hours after bacterial injection mice were injected intravenously with 10 nmol DOTA in 50 μL of PBS. Two hours after DOTA injection, mouse tumors, spleens, livers, and kidneys were collected for biodistribution analysis. The organs were weighed before being homogenized in equal volumes of sterile PBS. Serial dilutions of the organ slurry were prepared (tumor 10^−5, spleen, liver, and kidney 10-2) and 50 μL of the dilutions were plated on LB agar plates containing 100 μg/mL carbenicillin and incubated overnight at 37° C. Colonies were counted and the total CFU/g was determined by the formula (colony count)×(dilution factor)[…].
To determine the biodistribution of DOTA, the organs were analyzed via inductively coupled plasma mass spectrometry (ICP-MS). Fifty μL of Iridium standard was added to each sample. The organ and water mixture was mixed with one mL of 3:1 nitric acid: hydrogen peroxide overnight. […]

[1] = cited from earlier work

Row | Molecule | biodistribution of DOTA in tumor, liver, spleen, and kidney (MC38 tumor cells) | affinity for DOTA chelates of yttrium and lutetium ([1]; monoclonal anti-DOTA(radiometal) antibody) | Kd ([1]; pure scFv, DOTA-biotin-Y, read-out: binding kinetics of free 2D12.5 to DOTA-biotin-Y) [nM]
1 | O=C(O)CN1CCN(CC(=O)O)CCN(CC(=O)O)CCN(CC(=O)O)CC1 [DOTA, 2,2′,2″,2″′-(1,4,7,10-tetraazacyclododecane-1,4,7,10-tetrayl)tetraacetic acid] | strong levels in the tumor and kidneys with some DOTA remaining in the liver and spleen | – | –
2 | B1 | – | low nanomolar affinity | 3.7
